Here are results for 2 variants from publication PMC6374739.

The labels stand for the following.
B1: mCherry-UVR8-GFP (wild-type UV … LOCUS 8, from the pFRET-NcCg-DEST vector) [Arabidopsis thaliana] / itself (parent)
chain: MAEDMAADEVTAPPRKVLIISAGASHSVALLSGDIVCSWGRGEDGQLGHGDAEDRPSPTQLSALDGHQIVSVTCGADHTVAYSQSGMEVYSWGWGDFGRLGHGNSSDLFTPLPIKALHGIRIKQIACGDSHCLAVTMEGEVQSWGRNQNGQLGLGDTEDSLVPQKIQAFEGIRIKMVAAGAEHTAAVTEDGDLYGWGWGRYGNLGLGDRTDRLVPERVTSTGGEKMSMVACGWRHTISVSYSGALYTYGWSKYGQLGHGDLEDHLIPHKLEALSNSFISQISGGWRHTMALTSDGKLYGWGWNKFGQVGVGNNLDQCSPVQVRFPDDQKVVQVSCGWRHTLAVTERNNVFAWGRGTNGQLGIGESVDRNFPKIIEALSVDGASGQHIESSNIDPSSGKSWVSPAERYAVVPDETGLTDGSSKGNGGDISVPQTDVKRVRI

Holding throughout (settings): with itself, read off a plot
Variants of B1 are the subject of test [1]. Nature of the test: FRET by acceptor photobleaching in tobacco leaves, pFRET-NcCg-DEST vector.
The variants in test [2] derive from B1. In words: FRET (sensitized emission ratio mCherry(488)/GFP(488)) in tobacco leaves, pFRET-NcCg-DEST vector.
Variants of B1 are the subject of test [3]. Nature of the test: intermolecular FRET (sensitized emission ratio mCherry(488)/GFP(488)) in tobacco leaves, pFRET-2in1-DEST vector.
The mark [4] stands for this setting: +UV-B: 3 μmol m–2 s–1 broadband UV-B for 1 hour, parent: 11.
Setting [5] is: +UV-B: 3 μmol m–2 s–1 broadband UV-B for 1 hour, parent: 0.5.
Setting [6] is: +UV-B: 3 μmol m–2 s–1 broadband UV-B for 1 hour, parent: 0.44.

As for chain 1 D96N D107N, the response is 9.7% with itself [1] (setting [4]); 9.6% in the test with itself [1] (-UV-B, parent: 18); 0.43 with itself [2] (setting [5]); 0.43 with itself [2] (-UV-B, parent: 0.56); 0.33 in the test with itself [3] (setting [6]); 0.33 in the test with itself [3] (-UV-B, parent: 0.5).

chain 1 W285F: the response in the test with itself [1] (setting [4]) came out at 17%; with itself [1] (-UV-B, parent: 18), 17%; in the test with itself [2] (setting [5]) it was 0.58; in the test with itself [2] (-UV-B, parent: 0.56), 0.59; with itself [3] (setting [6]), 0.51; with itself [3] (-UV-B, parent: 0.5), 0.5.
